Entries after “also recorded” stand apart in the source; their conditions may differ.
T1: ldLIMP2 (Homo sapiens, UniProt Q14108)
T1 construct: Purified luminal domain LIMP-2 (1d-LIMP2) was custom made (Sino Biological Inc., PRC.); purchased Sino Biological Inc
T1 sequence (Q14108 28-433 limits assumed): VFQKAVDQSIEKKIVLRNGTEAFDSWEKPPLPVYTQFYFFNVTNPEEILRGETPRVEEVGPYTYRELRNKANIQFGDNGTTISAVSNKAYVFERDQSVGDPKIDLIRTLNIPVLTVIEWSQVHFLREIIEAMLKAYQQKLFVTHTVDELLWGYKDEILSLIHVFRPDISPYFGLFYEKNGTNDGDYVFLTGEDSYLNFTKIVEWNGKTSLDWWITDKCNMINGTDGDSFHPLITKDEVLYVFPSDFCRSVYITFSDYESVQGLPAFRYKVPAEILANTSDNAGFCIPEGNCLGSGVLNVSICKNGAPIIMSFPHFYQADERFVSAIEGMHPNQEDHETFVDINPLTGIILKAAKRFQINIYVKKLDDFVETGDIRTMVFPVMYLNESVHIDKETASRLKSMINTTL


What was measured:
[1] = CRIM specific activity of GCase variants (activity per cross-reacting immunological material); type: biochemical; details: FIG. 11A, 11B right panels
Procedure: (§1) Enzyme Assays: Cell pellets were homogenized in 0.25% Na-taurocholate and 0.25% Triton X-100. GCase activities were determined fluorometrically with 4 mM 4MU-Glc in 0.2M/0.1M citric-phosphate, pH 5.6 (18, 54)
Corresponding effects on the secretion of GCases from the cells containing various mutations in DSPIIVDITDK were found by assessing the activity of GCases in the media and cell lysate (FIG. 11 A-C). […] Using this assessment, the ratio of CRIM specific activities relative to WT (assigned 100%) for AAA, TAD, and AKA were 20%, 32%, and 49%, respectively (FIG. 11A, right panel), or that more GCase protein was required from the respective mutants to achieve the same enzyme activity as the WT. […] For the other mutants this ranged from 22-36%. This compares to ˜0% for the WT or D399E GCases Immunoaffinity anti-GCase column purification of the various GCases from media confirmed the excesses of these mutant GCases and the inability to detect WT or D399E GCases in media (data not shown).

Gba1−/− fibroblasts = assay: GCase activity in media and cell lysates after transient transfection (secretion and retention); type: cell-based, mouse; details: media, FIG. 11A, 11B
Source text: FIG. 11A-FIG. 11C: Secretion and retention of GCase with alanine variants in the TDK (FIG. 11A) or DSPIIV (SEQ ID NO 15) (FIG. 11B and FIG. 11C) sequences. FIG. 11A depicts activities in the media of Gba1−/− fibroblasts following transient transfections of each of the specified alanine substituted GCases in the TDK region. […] FIG. 11B depicts in the Left Panel: Activities in the media following transient transfections of various DSPIIV (SEQ ID NO 15) alanine substituted GCases and the % of GCase secreted. The latter was calculated as {ng GCase (in media)/[ng GCase (in media)+ng (GCase in lysates)]}×100 (also see Table 2). […] The transfections alone (Null+lipo) had no effect. […] FIG. 11C deicts in cellular lysate GCase activities from the various alanine substituted GCases in the DSPIIV (SEQ ID NO 15) sequence as indicated. […] The doubly alanine substituted GCase had little intracellular activity, i.e., nearly all the GCase was secreted into the media.
as §1

ldLIMP2 = biological target: T1, ldLIMP2; assay: Immunoprecipitation of alanine substituted GCases (TKD sequence) with ldLIMP2; type: binding; details: for binding of GCase variant to ldLIMP2, in words: GCase:LIMP2 1:1, immunoblot, FIG. 6
Source text: FIG. 6A-6E: Immunoprecipitation of the alanine substituted GCases in the TKD sequence with ldLIMP2. In panels shown in FIG. 6A to FIG. 6D, the lanes 1 through 6 correspond to the band densities indicated by the bars in FIG. 6E. […] The quantitative results are shown in (FIG. 6E) in which 1, 2, 3, and 4 correspond to WT, AAA, AKA, and AKD, respectively.
Immunoprecipitation of GCases with mutations in the TKD sequence: For immunoblots, Gba1 knockout mouse fibroblasts (null/null) were transfected with the GBA1 constructs (WT or mutants) and expressed for 5 days. The GCases from harvested cell lysates were purified using a GCase antibody affinity column (Dynabeads protein G crosslinked (BS3) with rabbit anti-human GCase antibody). The purified GCases were then mixed with LIMP2 (1:1), incubated (30 min.), and applied to another affinity column (Dynabeads protein G crosslinked (BS3) with rabbit anti-LIMP2 antibody). Aliquots of each step (loading, wash and eluent) were collected and analyzed on 12.5% SDS gels. Immunoblots were developed using anti-human GCase antibody and AP conjugated color development kits. Mock experiments with either non-LIMP2 proteins added or no GCases added, were used as control. The quantitations of these immunoprecipitation data were obtained from densitometry measurements of the gels. The no-LIMP-2 bars are the controls for comparison, since GCase was processed through all steps without LIMP-2 to account for any losses of GCase; About 50% of the GCase was lost during processing.

[2] = test system: Gba1 null/null mouse fibroblasts; assay: Immunofluorescence co-localization of expressed GCase constructs (lysosome vs ER/Golgi); type: cell-based; details: for lysosomal localization of GCases with alanine substitutions in the TKD sequence, in words: FIG. 5; for co-localization to / retention in the ER/Golgi, in words: calnexin or calreticulin
Source text: Immunofluorescence studies (IF): Mouse Gba1 null/null were used for the host cells for all transfection experiments. pCMV-AC-GFP Mammalian cell expression vector was used for expression of various GCases that included the TKD region (amino acids 407, 408 and 409) or the DSPIIV (SEQ ID NO 15) region (amino acids 399-404). Direct-labeled first antibodies were applied for IF detection; including anti-human GCase, -Calreticulin, -calnexin, -LIMP2, and -Lamp1. Lysotracker and ER tracker (Invitrogen) were also used as indicated. Analyses were done with a Zeiss AxioVert 200M with ApoTome. Co-localization analyses to obtain Pearson Indices were conducted using a module in the Axiovision 4.8 software.
Initial studies to localize the targeting peptide were conducted with GCase-GFP fusion constructs that had COOH-terminal deletions of GCase (FIG. 1). The constructs are designated as GCase-XX or XXX where the Xs represent the number of GCase amino acids deleted from the COOH-terminus. These constructs were transfected into and expressed in Gba1 null/null mouse fibroblasts using the CMV promoter (pCMV-AC-GFP or YFP) Immunofluorescence analyses using anti-human GCase IgG (green) and Lysotracker (Red) were used for colocalization of GCase to the lysosome (Red) or GCase (green) and Calreticulin or Calnexin (Red) for colocalization to the ER or Golgi (FIG. 2). […] Since LIMP-2 is the receptor for targeting of GCase to the lysosome, our working hypothesis was that the peptide sequence for binding of GCase to LIMP-2 was located within amino acids 347-422.

| binding of GCase variant to ldLIMP2, in words (ldLIMP2) | lysosomal localization of GCases with alanine substitutions in the TKD sequence, in words [2] | binding of GCase variant to ldLIMP2 (ldLIMP2; GCase on beads vs wash, FIG. 6C) | Molecule | CRIM specific activity relative to WT (assigned 100%) [1] [%] | increase of GCase activity in the media compared to WT (Gba1−/− fibroblasts; transient transfection) [fold] | GCase activity in the media / secretion, in words (Gba1−/− fibroblasts) | co-localization to / retention in the ER/Golgi, in words [2] |
| --- | --- | --- | --- | --- | --- | --- | --- |
| bound similarly | – | – | TAD: human GCase with TKD (407-409) replaced by TAD (protein) ARPCIPKSFGYSSVVCVCNATYCDSFDPPTFPALGTFSRYESTRSGRRMELSMGPIQANHTGTGLLLTLQPEQKFQKVKGFGGAMTDAAALNILALSPPAQNLLLKSYFSEEGIGYNIIRVPMASCDFSIRTYTYADTPDDFQLHNFSLPEEDTKLKIPLIHRALQLAQRPVSLLASPWTSPTWLKTNGAVNGKGSLKGQPGDIYHQTWARYFVKFLDAYAEHKLQFWAVTAENEPSAGLLSGYPFQCLGFTPEHQRDFIARDLGPTLANSTHHNVRLLMLDDQRLLLPHWAKVVLTDPEAAKYVHGIAVHWYLDFLAPAKATLGETHRLFPNTMLFASEACVGSKFWEQSVRLGSWDRGMQYSHSIITNLLYHVVGWTDWNLALNPEGGPNWVRNFVDSPIIVDITADTFYKQPMFYHLGHFSKFIPEGSQRVGLVASQKNDLDAVALMHPDGSAVVVVLNRSSKDVPLTIKDPAVGFLETISPGYSIHTYLWRRQ | 32 | ~8 | – | – |
| much less bound | less lysosomal localization | about 50% | AKA: human GCase with TKD (407-409) replaced by AKA (protein, listed as Homo sapiens) ARPCIPKSFGYSSVVCVCNATYCDSFDPPTFPALGTFSRYESTRSGRRMELSMGPIQANHTGTGLLLTLQPEQKFQKVKGFGGAMTDAAALNILALSPPAQNLLLKSYFSEEGIGYNIIRVPMASCDFSIRTYTYADTPDDFQLHNFSLPEEDTKLKIPLIHRALQLAQRPVSLLASPWTSPTWLKTNGAVNGKGSLKGQPGDIYHQTWARYFVKFLDAYAEHKLQFWAVTAENEPSAGLLSGYPFQCLGFTPEHQRDFIARDLGPTLANSTHHNVRLLMLDDQRLLLPHWAKVVLTDPEAAKYVHGIAVHWYLDFLAPAKATLGETHRLFPNTMLFASEACVGSKFWEQSVRLGSWDRGMQYSHSIITNLLYHVVGWTDWNLALNPEGGPNWVRNFVDSPIIVDIAKATFYKQPMFYHLGHFSKFIPEGSQRVGLVASQKNDLDAVALMHPDGSAVVVVLNRSSKDVPLTIKDPAVGFLETISPGYSIHTYLWRRQ | 49 | – | – | majority of the enzymes co-localized to the ER/Golgi |

| Molecule | binding of GCase variant to ldLIMP2, in words (ldLIMP2) | lysosomal localization of GCases with alanine substitutions in the TKD sequence, in words [2] | binding of GCase variant to ldLIMP2 (ldLIMP2; GCase on beads vs wash, FIG. 6C) | CRIM specific activity relative to WT (assigned 100%) [1] [%] | increase of GCase activity in the media compared to WT (Gba1−/− fibroblasts; transient transfection) [fold] | GCase activity in the media / secretion, in words (Gba1−/− fibroblasts) | co-localization to / retention in the ER/Golgi, in words [2] |
| --- | --- | --- | --- | --- | --- | --- | --- |
| AAA: human GCase with triple alanine substitution of TKD (positions 407-409) (protein, listed as Homo sapiens) ARPCIPKSFGYSSVVCVCNATYCDSFDPPTFPALGTFSRYESTRSGRRMELSMGPIQANHTGTGLLLTLQPEQKFQKVKGFGGAMTDAAALNILALSPPAQNLLLKSYFSEEGIGYNIIRVPMASCDFSIRTYTYADTPDDFQLHNFSLPEEDTKLKIPLIHRALQLAQRPVSLLASPWTSPTWLKTNGAVNGKGSLKGQPGDIYHQTWARYFVKFLDAYAEHKLQFWAVTAENEPSAGLLSGYPFQCLGFTPEHQRDFIARDLGPTLANSTHHNVRLLMLDDQRLLLPHWAKVVLTDPEAAKYVHGIAVHWYLDFLAPAKATLGETHRLFPNTMLFASEACVGSKFWEQSVRLGSWDRGMQYSHSIITNLLYHVVGWTDWNLALNPEGGPNWVRNFVDSPIIVDIAAATFYKQPMFYHLGHFSKFIPEGSQRVGLVASQKNDLDAVALMHPDGSAVVVVLNRSSKDVPLTIKDPAVGFLETISPGYSIHTYLWRRQ | essentially no binding; also recorded: did not bind | no lysosomal localization | – | 20 | – | the least | majority of the enzymes co-localized to the ER/Golgi; also recorded: abundant colocalization to the ER |
